{"source": "patent US20210230599", "about": "“STEM-LOOP COMPOSITIONS AND METHODS FOR INHIBITING INTERLEUKIN-8” (VITRISA THERAPEUTICS, INC., published 2021)", "key": {"[1]": {"target": "T1, Interleukin-8 (IL8, CXCL8), C-terminal His-tagged (Homo sapiens, UniProt P10145 SEQ:1-72)", "assay": "flow; bead-immobilized IL8, 37 C", "conditions": "tags: C-terminal 6xHis (Sino Biological); label: Alexa Fluor 647", "method": "(§1) Chemically synthesized aptamers (Table 8) were labeled with ALEXA FLUOR® 647 and were used to test binding to IL8 in a bead based assay using flow cytometry. In brief, fluorescently labeled aptamers were heated at 90° C. for 3 minutes in SB1T and were allowed to cool at room temperature for 5 minutes, after which they were incubated with c-his-IL8, immobilized on DYNABEADS® His-Tag Isolation and Pulldown beads in SB1T buffer containing 0.1% BSA, 1 μg/μl ssDNA and 1 μg/μl heparin sulphate at two different aptamer concentrations: 10 nM and 100 nM. Following incubation for 30 minutes at 37° C., the beads were washed three times with SB1T, re-suspended in SB1T buffer and analyzed by flow cytometry. […] Negligible or complete lack of binding seen in cases of some aptamers (e.g., Aptamers 4, 9, 10, and 16) could be due to the removal of the constant regions. No binding was observed when similar experiments were performed in the absence of protein (data not shown).\nFlow cytometry was used to measure the apparent binding affinity for Aptamer 2, Aptamer 3, Aptamer 5, Aptamer 6, Aptamer 8, Aptamer 11, Aptamer 12, Aptamer 13, Aptamer 14, Aptamer 20, Aptamer 22, Aptamer 23, and Aptamer 25 using bead immobilized c-his-IL8. […] Following incubation for 30 minutes at 37° C., the beads were washed and fluorescence was measured by flow cytometry. […]"}, "[2]": {"target": "T1, Interleukin-8 (IL8, CXCL8), C-terminal …", "assay": "TR-FRET, 500 pM IL8; Table 10 gives 2 nM; bead flow 13 nM", "conditions": "tags: C-terminal 6xHis (Sino Biological); label: Alexa Fluor 647; stem-loop (3 stems, 4 loops)", "method": "Under these assay conditions, the ability to measure the affinity accurately is limited by the input IL8 protein concentration, and the apparent Kd under these protein-limiting conditions was determined to be 8 nM."}, "[3]": {"target": "T1, Interleukin-8 (IL8, CXCL8), C-terminal …", "assay": "flow; appreciable binding, bead-immobilized IL8, 10 and 100 nM aptamer", "conditions": "tags: C-terminal 6xHis (Sino Biological); label: Alexa Fluor 647", "method": "as §1"}, "[4]": {"target": "T1, Interleukin-8 (IL8, CXCL8), C-terminal …", "assay": "competition; competition TR-FRET", "conditions": "tags: C-terminal 6xHis (Sino Biological); stem-loop"}, "[5]": {"target": "T1, Interleukin-8 (IL8, CXCL8), C-terminal …", "assay": "TR-FRET, 5 nM IL8, protein-limited; bead flow 18 nM", "conditions": "tags: C-terminal 6xHis (Sino Biological); label: Alexa Fluor 647", "method": "(§2) Aptamers were synthesized and labeled with ALEXA FLUOR® 647, and binding to IL8 was quantified by Time-Resolved Fluorescence Resonance Energy Transfer (TR-FRET). Briefly, 2-fold dilutions of thermally equilibrated aptamers were made in TR-FRET Buffer (50 mM MOPS, pH 7.4, 125 mM NaCl, 5 mM KCl, 50 μM CHAPS, 0.1 mg/mL BSA, 1 mM CaCl₂ and 1 mM MgCl₂). […] of aptamer or control solution was added to 10 μL of 15 nM C-His-tagged-IL8 (Sino Biological) in a black wall half-area plate (Corning). In the same plate, 10 μl of aptamer solution was added to 10 μl of TR-FRET buffer alone to use for background subtraction. 10 μl of 15 nM anti-His-Eu (Perkin Elmer) was added to each well, the plate was covered with a plate seal and subsequently incubated in the dark for 1 hour at room temperature. The plate was read on a Biotek CYTATION™ 5 plate reader. Samples were excited at 330 nm and fluorescent values were collected at 665 nm. […] Apparent Kd values obtained for the fits are calculated as the concentration of half-maximal binding and shown in Table 10, and fit curves as FIG. 6. […] It is also possible that differences may arise due to TR-FRET being a homogenous solution binding assay, while bead binding has immobilized ligand and is non-homogenous, so bound aptamers may dissociate during analysis resulting in higher calculated Kd values."}, "[6]": {"target": "T1, Interleukin-8 (IL8, CXCL8), C-terminal …", "assay": "competition; competition TR-FRET; S2 disrupted", "conditions": "tags: C-terminal 6xHis (Sino Biological)", "method": "(§3) To better understand the sequence requirements and to confirm the stem structures of members of the Aptamer 3 family as determined from sequence covariation analysis from both the primary and secondary (degenerate) selections, a series of variants which included mutations and deletions to the predicted stems were synthesized and screened (Table 24). Activity of each of these variants were tested using a time resolved competition TR-FRET assay in which the labeled parent Aptamer 3 was competed with increasing concentrations of unlabeled variants for binding to IL8 (FIG. 14). Briefly, 2-fold dilutions of thermally equilibrated aptamers were made in TR-FRET Buffer (50 mM MOPS, pH 7.4, 125 mM NaCl, 5 mM KCl, 50 μM CHAPS, 0.1 mg/mL BSA, 1 mM CaCl₂, and 1 mM MgCl₂). 5 μL of aptamer or control solution was added to 5 μl mix of 10 nM C-terminal His-tagged-IL8, 60 nM ALEXA FLUOR® 647-labeled Aptamer, and 5 nM anti-His-Eu (Perkin Elmer) in a black wall low volume 384 well plate (Greiner). For control, 5 μl of 1000-fold excess of unlabeled parent aptamer or 5 μl TR-FRET buffer alone was added to the mix of ALEXA FLUOR® 647-labeled aptamer, His-IL8, and anti-His-Eu. The plate was covered with a plate seal and subsequently incubated in the dark for 1 hour at room temperature. The plate was read on a Biotek CYTATION™ 5 plate reader. […]"}, "[7]": {"target": "T1, Interleukin-8 (IL8, CXCL8), C-terminal …", "assay": "TR-FRET, 5 nM IL8, protein-limited", "conditions": "tags: C-terminal 6xHis (Sino Biological); label: Alexa Fluor 647"}, "[8]": {"target": "T1, Interleukin-8 (IL8, CXCL8), C-terminal …", "assay": "competition; competition TR-FRET; S3 mutant", "conditions": "tags: C-terminal 6xHis (Sino Biological)", "method": "as §3"}, "[9]": {"target": "T1, Interleukin-8 (IL8, CXCL8), C-terminal …", "assay": "competition; competition TR-FRET; S3 extended", "conditions": "tags: C-terminal 6xHis (Sino Biological)", "method": "as §3"}, "[10]": {"target": "T1, Interleukin-8 (IL8, CXCL8), C-terminal …", "assay": "TR-FRET, 5 nM IL8, protein-limited; bead flow 13 nM", "conditions": "tags: C-terminal 6xHis (Sino Biological); label: Alexa Fluor 647", "method": "as §2"}, "[11]": {"target": "T1, Interleukin-8 (IL8, CXCL8), C-terminal …", "assay": "TR-FRET; GAG-site binder, displaced by heparan sulfate IC50 9 uM", "conditions": "tags: C-terminal 6xHis (Sino Biological); label: Alexa Fluor 647", "description": "Differences between these TR-FRET values (Table 10) and those from the bead binding assay (Table 9) may be due to a different limiting concentration of IL8. […] It is also possible that differences may arise due to TR-FRET being a homogenous solution binding assay, while bead binding has immobilized ligand and is non-homogenous, so bound aptamers may dissociate during analysis resulting in higher calculated Kd values.\nAptamer 1 (C6NH₂-[…]-idT, where C and U are 2′F, A and G are 2′OH; C6NH₂ is a hexylamino linker; and idT is a 3′ inverted deoxythymidine residue (SEQ ID NO: 75 with modifications)) was used as a positive control for an aptamer that binds to the GAG binding site. Aptamers 1, 3, 6, 8 and 11 were labeled with ALEXAFLUOR® 647 as described in Example 3. […] Briefly, 2-fold dilutions of heparan sulfate (Sigma Aldrich) were made in TR-FRET Buffer (50 mM MOPS, pH 7.4, 125 mM NaCl, 5 mM KCl, 50 μM CHAPS, 0.1 mg/mL BSA, 1 mM CaCl₂ and 1 mM MgCl₂). […] heparan sulfate or control solution were added to […] a mixture of 10 nM C-His-tagged-IL8 (Sino Biological), 5 nM anti-His-Eu (Perkin Elmer), and 30 nM AlexaFluor® 647-labeled aptamer in TR-FRET in a black low volume 384-well plate (Greiner). The plate was covered with a plate seal and subsequently incubated in the dark for 1 hour at room temperature. The plate was read on a Biotek CYTATION™ 5 plate reader. […]"}, "[12]": {"target": "T1, Interleukin-8 (IL8, CXCL8), C-terminal …", "assay": "TR-FRET, 1 mM Ca, 1 mM Mg, room temperature", "conditions": "tags: C-terminal 6xHis (Sino Biological); label: Alexa Fluor 647", "method": "as §2"}}, "data": [{"binder": "UGACUGCGGUCGCAAGUUACGGAUUUGCCGCCCCGU (ssRNA, 2'-F G, 2'-OMe A/C/U, 5' C6NH2, 3' idT)", "note": "[Aptamer 20]", "values": [{"measurement": "Kd", "setting": "[1]", "result": 15, "unit": "nM"}]}, {"binder": "UGAUGACGGUAGAUUACGGGUAGAGUGACCGCAUCU (ssRNA, 2'-F G, 2'-OMe A/C/U, 5' C6NH2, 3' idT)", "note": "[Aptamer 3]", "values": [{"measurement": "Kd", "setting": "[2]", "result": 0.214, "unit": "nM"}]}, {"binder": "UCAUGGGUUGCCAACCGGCCGUGUAUGUACGUACAU (ssRNA, 2'-F G, 2'-OMe A/C/U, 5' C6NH2, 3' idT)", "note": "[Aptamer 25]", "values": [{"measurement": "binding result", "setting": "[3]", "result": "binds"}]}, {"binder": "GCGACGGUAGAUUACGGGUAGAGUGACCGCGC (ssRNA, 2'-F G, 2'-OMe A/C/U, 5' C6NH2, 3' idT)", "note": "[Aptamer 42]", "values": [{"measurement": "binding signal", "setting": "[4]", "result": "~1.4", "unit": "fold worse than Aptamer 3"}]}, {"binder": "UCAGGCUGAAAAGUGAGCUAUAAUGUCCUGAUUGAU (ssRNA, 2'-F G, 2'-OMe A/C/U, 5' C6NH2, 3' idT)", "note": "[Aptamer 6]", "values": [{"measurement": "Kd", "setting": "[5]", "result": 2, "unit": "nM"}]}, {"binder": "UGAUGACCCUAGAUUACGGGUAGAGUGACCGCAUCU (ssRNA, 2'-F G, 2'-OMe A/C/U, 5' C6NH2, 3' idT)", "note": "[Aptamer 188]", "values": [{"measurement": "binding signal", "setting": "[6]", "result": "> 10", "unit": "fold worse than Aptamer 3"}]}, {"binder": "UUAUUGCGGCCCGAUUUACCGAAUUUGCCGUCCGGU (ssRNA, 2'-F G, 2'-OMe A/C/U, 5' C6NH2, 3' idT)", "note": "[Aptamer 7]", "values": [{"measurement": "Kd", "setting": "[7]", "result": 2, "unit": "nM"}]}, {"binder": "GGCGACGGUAGACUACGGGUAGAGUGACCGCGCC (ssRNA, 2'-F G, 2'-OMe A/C/U, 5' C6NH2, 3' idT)", "note": "[Aptamer 89]", "values": [{"measurement": "binding signal", "setting": "[8]", "result": "> 10", "unit": "fold worse than Aptamer 3"}]}, {"binder": "GGCGACGGUAGAUCACGGGUAGGGUGACCGCGCC (ssRNA, 2'-F G, 2'-OMe A/C/U, 5' C6NH2, 3' idT)", "note": "[Aptamer 90]", "values": [{"measurement": "binding signal", "setting": "[9]", "result": "> 10", "unit": "fold worse than Aptamer 3"}]}, {"binder": "UCCGGUUGCUGAGAUGUGAGAUUAAUGUCCACCGUU (ssRNA, 2'-F G, 2'-OMe A/C/U, 5' C6NH2, 3' idT)", "note": "[Aptamer 11]", "values": [{"measurement": "Kd", "setting": "[10]", "result": 2, "unit": "nM"}]}, {"binder": "GGGGGCUUAUCAUUCCAUUUAGUGUUAUGAUAACC (ssRNA, 2'-F C and U, 2'-OH A and G, 5' C6NH2, 3' idT)", "note": "[Aptamer 1]", "values": [{"measurement": "Kd", "setting": "[11]", "result": 3, "unit": "nM"}]}, {"binder": "UGUCGCCCUACGUAAACCGCUAUUUGCGACUGCGGU (ssRNA, 2'-F G, 2'-OMe A/C/U, 5' C6NH2, 3' idT)", "note": "[Aptamer 19]", "values": [{"measurement": "Kd", "setting": "[12]", "result": 4, "unit": "nM"}]}]}
